Reference: patent publication US20190233498A1 (H LUNDBECK A S, published 2019)

What was measured:
human PACAP38 [1] = target: T1, human PACAP38 (human, not fully specified; C-terminal lysine is amidated; N-terminal or C-terminal biotin in the HTRF and PC-12 cell binding assays); assay: HTRF binding, biotin-PACAP38
T1 construct: synthetic peptide, bought; also called huPACAP (1-38)
T1 peptide: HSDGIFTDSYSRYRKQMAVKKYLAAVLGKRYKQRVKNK
Procedure, shortened: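 Antibody dilution series (top 100 nM final) incubated with N- or C-terminal biotinylated PACAP38 (35 nM final), alone or with 350 nM PACAP27 or VIP. HTRF with Eu³⁺ anti-human Fc donor and d2-streptavidin acceptor, 1 h at room temperature, read at 620/665 nm; EC₅₀ from binding curves.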

human PACAP38 [2] = target: T1, human PACAP38; assay: cell-based or functional assay
human PACAP38 [3] = target: T1, human PACAP38; assay: cell-based or functional assay
human PACAP27 [4] = target: T2, human PACAP27 (human, C-terminal leucine is amidated; 125I-labelled in Example 10); assay: cell-based or functional assay
T2 peptide: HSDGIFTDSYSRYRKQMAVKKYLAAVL

human VIP = target: T3, human VIP (human); assay: SPR, Ab immobilised
T3 construct: also called Vasoactive Intestinal Peptide
T3 peptide: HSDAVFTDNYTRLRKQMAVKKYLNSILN

human PACAP38 [5] = target: T1, human PACAP38; assay: SPR, Ab immobilised
Procedure, shortened: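 SPR with antibody amine-coupled to the chip and human PACAP38 flowed as analyte at 1.23–100 nM in PBST containing 0.25 M arginine, 0.2 mg/ml BSA and 0.005% azide, pH 7. Association lasted 2–4 min and dissociation 3–120 min. Kinetics were fitted to a 1:1 Langmuir model.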

human PACAP27 [6] = target: T2, human PACAP27; assay: SPR, Ab immobilised
human PACAP38 [7] = target: T1, human PACAP38; assay: cell-based or functional assay
human PACAP38 [8] = target: T1, human PACAP38; assay: inhibition of 100 nM biotin-PACAP38 binding to PC-12 cells, TRF
Procedure, shortened: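 Antibodies were preincubated 1 h with N-terminally biotinylated PACAP38, then added to adherent PAC1-R-expressing PC-12 cells for 1 h at room temperature. After washing, bound peptide was detected with Europium-streptavidin (1 h, RT) plus DELFIA enhancement, read by time-resolved fluorescence, and inhibition curves were generated.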

human PACAP38 [9] = target: T1, human PACAP38; assay: inhibition of 30 nM biotin-PACAP38 binding to PC-12 cells, TRF
Experimental: To identify antibodies that block PACAP38 binding to PAC1-R-expressing cells, adherent PC-12 cells (ATCC, Manassas, Va.) expressing PAC1-R were used in a Europium-based PAC1-R expressing cells binding assay.
Antibody solutions were incubated with N-terminal biotinylated PACAP38 at 10× the final concentration (100 nM or 30 nM) for 1 hr, then added to PC-12 cells that were plated 24 hrs. prior in black clear bottom 96 well plates (COSTAR™, Corning Incorporated, Corning, N.Y.) and further incubated for 1 hr at room temperature. After three washes, the cells were incubated with 20 μl Europium-labeled streptavidin (PerkinElmer, Waltham, Mass.) for 1 hr at room temperature. Cells were washed three times, then 20 μl DELFIA® Enhancement solution (PerkinElmer, Waltham, Mass.) was added to each well and incubated for 15 minutes with gentle shaking. Plates were read (Time Resolved Fluorescence (“TRF”)) on SPECTRAMAX® (Molecular Devices, Sunnyvale, Calif.) plate reader.
FIGS. 14A-14BB are representative of the inhibition curves obtained by this method (results are shown for Ab1, Ab2, Ab3, Ab4, Ab5, Ab6, Ab7, Ab8, Ab9, Ab10, Ab11, Ab12, Ab13, Ab14, Ab15, Ab16, Ab17, Ab18, Ab19, Ab1.H, Ab10.H, Ab22, Ab23, Ab3.H, Ab4.H, Ab5.H, Ab9.H, and Ab12.H, respectively) wherein the PAC1-R expressing cells were PC-12 cells.

Binder | EC50 (human PACAP38 [1]) [µM] | IC50, 5 nM PACAP38-induced human VPAC1-R mediated cAMP increase (human PACAP38 [2]) [µM] | IC50, 0.1 nM PACAP38-induced PAC1-R mediated cAMP increase (human PACAP38 [3]) [µM] | IC50, 0.1 nM PACAP27-induced PAC1-R mediated cAMP increase (human PACAP27 [4]) [nM] | Kd (human VIP) [µM] | koff (human VIP) [s⁻¹] | kon (human VIP) [M⁻¹ s⁻¹] | Kd (human PACAP38 [5]) [nM] | koff (human PACAP38 [5]) [s⁻¹] | kon (human PACAP38 [5]) [M⁻¹ s⁻¹] | Kd (human PACAP27 [6]) [nM] | koff (human PACAP27 [6]) [s⁻¹] | kon (human PACAP27 [6]) [M⁻¹ s⁻¹] | IC50, 1 nM PACAP38-induced human VPAC2-R mediated cAMP increase (human PACAP38 [7]) [µM] | IC50 (human PACAP38 [8]) [µM] | IC50 (human PACAP38 [9]) [µM]
anti-PACAP antibody Ab1 (antibody, human IgG1, kappa, N297A, V domains shown, full-length rabbit/human chimeric antibody) VH: QSVEESGGRLVTPGTPLTLTCTVSGFSLSSAVMNWVRQAPGKGLEWIGSIVASGTTYYASWANGRFTISKTSSTTMDLKMTSPTTEDTATYFCARGGGEFFIWGPGTLVTVSS VL: DPVMTQTPSSTSAAVGGTVTISCQSSESVYSNYLSWYQQKPGQPPNFLIYQASNLASGVPSRFKGSGSGTQFTLTITDLECDDAATYYCAGGYSENIVGFGGGTEVVVKR | 0.00043 | 0.000665 | 0.000293 | 0.0729 | 0.099 | 0.025 | 250000 | ≤ 0.027 | ≤ 1e-05 | 370000 | ≤ 0.1 | ≤ 1e-05 | 1e+06 | 0.000147 | 0.0127 | –
anti-PACAP antibody Ab2 (antibody, human IgG1, kappa, N297A, V domains shown, full-length rabbit/human chimeric antibody) VH: QSVEESGGRLVTPGTPLTLTCTVSGFSLSGAAMNWVRQAPGKGLEWIGVIGNSGSTYYASWAKGRFTISKTSSTTVDLKMTSPTTEDTATYFCARGGGEFFIWGQGTLVTVSS VL: AQVLTQTPSPVSAAVGGTVTINCQSSESVYKNNYLSWYQQKPGQPPKFLIYQASNLADGVPSRFKGSGSGTQFTLTISDLECDDAATYYCAGGYSTYMSGFGGGTEVVVKR | 0.00035 | 0.000688 | 0.000237 | 0.063 | 0.14 | 0.084 | 580000 | ≤ 0.044 | ≤ 1e-05 | 230000 | ≤ 0.012 | ≤ 1e-05 | 830000 | 0.000174 | 0.0266 | –
anti-PACAP antibody Ab5.H (antibody, human IgG1, kappa, N297A, V domains shown, humanized form of Ab5, full length) VH: EVQLVESGGGLVQPGGSLRLSCAASGFSLSSYAMIWVRQAPGKGLEWVGIIYDNGDTYYASSAKGRFTISRDNSKNTVYLQMNSLRAEDTAVYFCAREPGSTTQNDLWGQGTLVTVSS VL: DVQMTQSPSTLSASVGDRVTITCQASENIYNSLLWYQQKPGKAPKLLIYRASTLASGVPSRFSGSGSGTEFTLTISSLQPDDFATYYCQNYYNIWTNGAAFGGGTKVEIKR | – | 0.00277 | 0.000378 | 0.217 | 100000 | 0.1 | – | 0.031 | 1.7e-05 | 550000 | 0.48 | 0.00013 | 270000 | 0.00747 | – | 0.0349
anti-PACAP antibody Ab9.H (antibody, human IgG1, kappa, N297A, V domains shown, humanized form of Ab9, full length) VH: EVQLVESGGGLVQPGGSLRLSCAASGFTVSRDYWICWVRQAPGKGLEWIGCISAGGGSTDYANWVNGRFTISRDISKNTGYLQMNSLRAEDTAVYYCAGNLEIWGQGTLVTVSS VL: DIQMTQSPSTLSASVGDRVTITCQSSPSIYSGAFLSWYQQKPGKAPKFLIYEASKLASGVPSRFSGSGSGTEFTLTISSLQPDDFATYYCLGFYDCSSVDCHAFGGGTKVEIKR | – | 0.00246 | 0.000278 | 0.271 | 1.5 | 0.14 | 93000 | 0.061 | 6.1e-05 | 1e+06 | 0.12 | 7.7e-05 | 620000 | 0.00265 | – | 0.0225
anti-PACAP antibody Ab4.H (antibody, human IgG1, kappa, N297A, V domains shown, humanized form of Ab4, full length) VH: EVQLVESGGGLVQPGGSLRLSCAASGFSLSSYDMSWVRQAPGKGLEWIGIINTNDDTWYASWVKGRFTISRDNSKNTLYLQMNSLRAEDTAVYYCARISDAYVFDYAYYFTLWGQGTLVTVSS VL: DIQMTQSPSTLSASVGDRVTITCLASQNIYNSLAWYQQKPGKAPKLLIYRASTLASGVPSRFSGSGSGTEFTLTISSLQPDDFATYYCQQGAGADNIGNPFGGGTKVEIKR | – | 0.0026 | 0.000307 | 0.294 | 0.072 | 0.024 | 330000 | 0.1 | 3.2e-05 | 310000 | ≤ 0.031 | ≤ 1e-05 | 330000 | 0.00449 | – | 0.098
anti-PACAP antibody Ab3.H (antibody, human IgG1, kappa, N297A, V domains shown, humanized form of Ab3, full length) VH: EVQLVESGGGLVQPGGSLRLSCAASGFSFSSSDYMCWVRQAPGKGLEWIGCIDAGSSGDTYFASSAKGRFTISRDNSKNTVYLQMNSLRAEDTAVYFCARHLYGSITFAFGLWGQGTLVTVSS VL: AAQMTQSPSTLSASVGDRVTITCQASQSIGSDLAWYQQKPGKAPKLLIYDASTLASGVPSRFSGSGSGTEFTLTISSLQPDDFATYYCQGTYYSSGWYTAFGGGTKVEIKR | – | 0.00733 | 0.00132 | 1.21 | 100000 | 0.1 | – | 0.29 | 0.00014 | 490000 | 1 | 0.00034 | 330000 | 0.0642 | – | 0.0883
